According to the RNAGym collection of RNA variant scans (doi:10.1101/gr.219683.116):

B1: mRNA-splicing (parent)
chain: AGUUGCUGCUGGGAGCUCCAGCACAGUGAAAUGGACAGAAGGGCAGAGCAA

Variants of: B1
Assay: exon inclusion enrichment index; higher = more inclusion; WT1 exon 5 minigene, HEK293

Which “exon inclusion enrichment index” value does the source give for C6A U7A C9A U10A U32A G33A here?
The value was 0.234.

For C6A U7C C9A U10C C19U A20U, which “exon inclusion enrichment index” value is on record?
The value was 2.13.

With C6A U7C C9A U10C C19U A20G as the variant, how does the “exon inclusion enrichment index” value read?
The value was 1.79.

With C6A U7C C9A U10C C19U A20C as the variant, how does the “exon inclusion enrichment index” value read?
Its value is 3.08.

With C6A U7C C9A U10C G11C as the variant, how does the “exon inclusion enrichment index” value read?
The value was 3.61.

For C6A U7C C9A U10C G11A, which “exon inclusion enrichment index” value is on record?
Its value is 1.84.

Which “exon inclusion enrichment index” value does the source give for C6A U7C here?
The value was 0.264.

With C6A U7A C9U U10G as the variant, how does the “exon inclusion enrichment index” value read?
Its value is 0.0647.

For C6A U7A C9U U10C, which “exon inclusion enrichment index” value is on record?
The value was 1.36.

For C6A U7A C9U U10A, which “exon inclusion enrichment index” value is on record?
Its value is 0.0203.

For C6A U7A G8U U10A, which “exon inclusion enrichment index” value is on record?
The value was 0.0805.

Which “exon inclusion enrichment index” value does the source give for C6A U7C C9A U10C A47G G48U here?
Its value is 0.925.

For C6A U7C C9A U10C A47G G48A, which “exon inclusion enrichment index” value is on record?
Its value is 2.43.

For C6A U7C C9A U10C A47G G48C, which “exon inclusion enrichment index” value is on record?
Its value is 1.71.

Which “exon inclusion enrichment index” value does the source give for C6A U7C C9A U10C A20C G21U here?
Its value is 2.72.

Which “exon inclusion enrichment index” value does the source give for C6A U7C C9A U10C A20C G21A here?
Its value is 2.38.

Which “exon inclusion enrichment index” value does the source give for C6A U7C C9A U10C A20C G21C here?
Its value is 2.31.

With C6A U7C C9A U10C A31U U32A as the variant, how does the “exon inclusion enrichment index” value read?
The value was 0.902.

Which “exon inclusion enrichment index” value does the source give for C6A U7C C9A U10C A31U U32C here?
The value was 3.74.

With C6A U7C C9A U10C A31U U32G as the variant, how does the “exon inclusion enrichment index” value read?
The value was 2.15.

For C6A U7A C9A U10A G46U A47G, which “exon inclusion enrichment index” value is on record?
Its value is 0.587.

For C6A U7A C9A U10A G46U A47U, which “exon inclusion enrichment index” value is on record?
The value was 1.03.

Which “exon inclusion enrichment index” value does the source give for C6A U7A C9A U10A G46U A47C here?
Its value is 1.79.

For C6A U7C C9A U10C A37C G38U, which “exon inclusion enrichment index” value is on record?
Its value is 2.3.

Which “exon inclusion enrichment index” value does the source give for C6A U7C C9A U10C A37C G38A here?
The value was 2.46.

For C6A U7C C9A U10C A37C G38C, which “exon inclusion enrichment index” value is on record?
Its value is 3.1.

For C6A U7A C9A U10A U27G G28A, which “exon inclusion enrichment index” value is on record?
Its value is 0.869.

For C6A U7A C9A U10A U27G G28C, which “exon inclusion enrichment index” value is on record?
The value was 0.369.

Which “exon inclusion enrichment index” value does the source give for C6A U7A C9A U10A U27G G28U here?
The value was 0.003.

With C6A U7C C9A U10C A45G as the variant, how does the “exon inclusion enrichment index” value read?
Its value is 4.95.

Which “exon inclusion enrichment index” value does the source give for C6A U7C C9A U10C A45U here?
Its value is 3.86.

For C6A U7C C9A U10C A45C, which “exon inclusion enrichment index” value is on record?
The value was 3.19.

Which “exon inclusion enrichment index” value does the source give for C6A U7C C9A U10C A39C A40C here?
Its value is 3.31.

For C6A U7C C9A U10C A39C A40G, which “exon inclusion enrichment index” value is on record?
Its value is 3.55.

With C6A U7C C9A U10C A39C A40U as the variant, how does the “exon inclusion enrichment index” value read?
The value was 3.22.

For C6A U7C C9A U10C C24A A25U, which “exon inclusion enrichment index” value is on record?
The value was 2.96.

With C6A U7C C9A U10C C24A A25C as the variant, how does the “exon inclusion enrichment index” value read?
Its value is 4.45.

Which “exon inclusion enrichment index” value does the source give for C6A U7C C9A U10C C24A A25G here?
Its value is 2.94.

With C6A U7C C9A U10C C19G as the variant, how does the “exon inclusion enrichment index” value read?
The value was 3.61.

For C6A U7C C9A U10C C19U, which “exon inclusion enrichment index” value is on record?
Its value is 0.759.

With C6A U7C C9A U10C C19A as the variant, how does the “exon inclusion enrichment index” value read?
The value was 2.55.

With C6A U7A G8U C9G U10A as the variant, how does the “exon inclusion enrichment index” value read?
Its value is 0.135.

Which “exon inclusion enrichment index” value does the source give for C6A U7A G8A C9G U10A here?
Its value is 0.2.

With C6A U7C C9A U10C G11A G12U as the variant, how does the “exon inclusion enrichment index” value read?
The value was 1.87.

Which “exon inclusion enrichment index” value does the source give for C6A U7C C9A U10C G11A G12A here?
The value was 2.21.

For C6A U7C C9A U10C G11A G12C, which “exon inclusion enrichment index” value is on record?
Its value is 2.2.

For C6A U7C C9A U10C A30G A31U, which “exon inclusion enrichment index” value is on record?
Its value is 1.6.

For C6A U7C C9A U10C A30G A31C, which “exon inclusion enrichment index” value is on record?
Its value is 0.677.

With C6A U7C C9A U10C A30G A31G as the variant, how does the “exon inclusion enrichment index” value read?
Its value is 1.7.

With C6A U7C C9A U10C A45U G46U as the variant, how does the “exon inclusion enrichment index” value read?
Its value is 1.75.

For C6A U7C C9A U10C A45U G46A, which “exon inclusion enrichment index” value is on record?
Its value is 2.51.

Which “exon inclusion enrichment index” value does the source give for C6A U7C C9A U10C A45U G46C here?
The value was 2.51.

For C6A U7C C9A U10C A31C U32G, which “exon inclusion enrichment index” value is on record?
Its value is 3.9.

For C6A U7C C9A U10C A31C U32C, which “exon inclusion enrichment index” value is on record?
Its value is 4.42.

Which “exon inclusion enrichment index” value does the source give for C6A U7C C9A U10C A31C U32A here?
Its value is 2.78.

Which “exon inclusion enrichment index” value does the source give for C6A U7C C9A U10C A20U G21A here?
The value was 2.77.

With C6A U7C C9A U10C A20U G21C as the variant, how does the “exon inclusion enrichment index” value read?
The value was 3.73.

Which “exon inclusion enrichment index” value does the source give for C6A U7C C9A U10C A20U G21U here?
The value was 2.83.

Which “exon inclusion enrichment index” value does the source give for C6A U7C C9A U10C A37C here?
Its value is 3.93.

For C6A U7C C9A U10C A37G, which “exon inclusion enrichment index” value is on record?
Its value is 4.15.

Which “exon inclusion enrichment index” value does the source give for C6A U7C C9A U10C A37U here?
Its value is 2.49.

For C6A U7A C9A U10A U32C G33U, which “exon inclusion enrichment index” value is on record?
The value was 0.476.

With C6A U7A C9A U10A U32C G33A as the variant, how does the “exon inclusion enrichment index” value read?
The value was 0.27.

For C6A U7A C9A U10A U32C G33C, which “exon inclusion enrichment index” value is on record?
Its value is 1.09.

For C6A U7C C9A U10C A23G C24U, which “exon inclusion enrichment index” value is on record?
Its value is 1.95.

For C6A U7C C9A U10C A23G C24G, which “exon inclusion enrichment index” value is on record?
Its value is 4.2.

With C6A U7C C9A U10C A23G C24A as the variant, how does the “exon inclusion enrichment index” value read?
The value was 4.13.

With C6A U7A C9A U10A G46C A47U as the variant, how does the “exon inclusion enrichment index” value read?
Its value is 0.833.

With C6A U7C C9A U10C A23U as the variant, how does the “exon inclusion enrichment index” value read?
The value was 2.78.

For C6A U7C C9A U10C A23G, which “exon inclusion enrichment index” value is on record?
Its value is 4.36.

For C6A U7C C9A U10C A23C, which “exon inclusion enrichment index” value is on record?
The value was 3.27.

For C6A U7C C9A U10C A39U A40U, which “exon inclusion enrichment index” value is on record?
The value was 1.76.

Which “exon inclusion enrichment index” value does the source give for C6A U7C C9A U10C A39U A40G here?
The value was 1.39.

Which “exon inclusion enrichment index” value does the source give for C6A U7C C9A U10C A39U A40C here?
Its value is 3.44.

With C6A U7C C9A U10C C44G as the variant, how does the “exon inclusion enrichment index” value read?
Its value is 4.07.

For C6A U7C C9A U10C C44A, which “exon inclusion enrichment index” value is on record?
Its value is 4.44.

With C6A U7C C9A U10C C44U as the variant, how does the “exon inclusion enrichment index” value read?
The value was 1.32.

With C6A U7C C9A U10C C18U C19A as the variant, how does the “exon inclusion enrichment index” value read?
The value was 0.757.

Which “exon inclusion enrichment index” value does the source give for C6A U7C C9A U10C C18U C19U here?
Its value is 0.145.

With C6A U7C C9A U10C C18U C19G as the variant, how does the “exon inclusion enrichment index” value read?
Its value is 1.93.

With C6A U7A G8A C9A U10A as the variant, how does the “exon inclusion enrichment index” value read?
Its value is 0.207.

With C6A U7A G8A C9A U10C as the variant, how does the “exon inclusion enrichment index” value read?
Its value is 1.36.

With C6A U7C C9A U10C C36G A37C as the variant, how does the “exon inclusion enrichment index” value read?
Its value is 1.56.

Which “exon inclusion enrichment index” value does the source give for C6A U7C C9A U10C C36G A37G here?
The value was 1.36.
